Source: the supplement of paper PMC11865577

Tested on: TO-N3 (biotin conjugate)
Experiment: pull-down binding Z-score (relative to library population); higher = stronger binding
Details: RNA library: Library-2
Summary of the method: (§1)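 Biotin-conjugated small molecule (100 pmol) on streptavidin beads was incubated with 1 μg of heat-folded Cy5- or Cy3-end-labelled RNA library in phosphate/NaCl/KCl buffer at 25 °C for 60 min. Following three washes, RNA was eluted with hot SDS and hybridised at 55.5 °C for 20 h to a DNA barcode microarray. The binding value is a Z-score computed from the library mean and standard deviation, after subtraction of beads without compound and averaging of barcoded replicate probes with the highest and lowest excluded.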

Point of comparison: GGUGGUUGUGGGAGUCACU [hsa-mir-4418], “pull-down binding Z-score” value 2.18. Against it:
- GGUGUCAUGCCCCAAGAUAACC [hsa-mir-634] — lower, -0.387
- GGUGUCGAACUCAUGGCUGCCACC [hsa-mir-6782] — lower, -0.065
- GGUUCAAGUUUGGCUCCAUCUUUAUGAAA [hsa-mir-4506] — lower, 0.0775
- GGUUCCCACGCCGCGGCAACC [hsa-mir-6776] — lower, 0.217
- GGUUCUCAGUCAGAACC [hsa-mir-6813] — lower, -0.372
- GGUUCUGGGGUGUAGACGCUGCUGGCCAGCC [hsa-mir-4707] — lower, 0.587
- GGUUCUUCCCGAAGC [hsa-mir-4710] — lower, 0.0409
- GGUUGCUGGAGGUCAGC [hsa-mir-6871] — lower, 0.489
- GGUUGGCCGCUGACCCCCGCGGGGCCCCCGGCGGCC [hsa-mir-3195] — lower, 0.0623
- GGUUGGGGUGGGCUGCCUGUGGACCAAUC [hsa-mir-4525] — higher, 2.44
- GGUUGUUAGAUAGACAACU [hsa-mir-4510] — lower, 0.328
- GGUUGUUUAAUUAGGAACCAACU [hsa-mir-190b] — lower, -0.293
- GGUUUCCUUCGGGGCAGGUGGGGACUGCUCCUUUGGGAGGAAGGAGGAGGCC [hsa-mir-4453] — higher, 2.34
- GGUUUCGGGCUGCC [hsa-mir-661] — lower, 0.249
- GGUUUCUUAAAAUGGAAUCU [hsa-mir-1255b-1] — lower, -0.413
- GGUUUGCGCCUCAAGAAACC [hsa-mir-1255b-2] — lower, -0.0954
- GGUUUUGCCAUCAUGCCAAAAGCU [hsa-mir-548v] — lower, 0.277
- GGUUUUUACCAUUAAAACC [hsa-mir-548aw] — lower, -1.01
- GUAAGAGAGACUCUCGCUUCCUGC [hsa-mir-874] — lower, 0.169
- GUAGAUUGAAAGCCCUAAUUUUAC [hsa-mir-3941] — lower, -0.0427
- GUAGAUUUUAUGUCAC [hsa-mir-892b] — lower, -0.00927
- GUAUACUGAGCUUAUGUAUGCAUCUGCAUAC [hsa-mir-5591] — lower, 0.39
- GUAUGAGUGCCACAGAGCCGUCAUAA [hsa-mir-9-3] — lower, 1.39
- GUAUGAGUGGUGUGGAGUCUUCAUAA [hsa-mir-9-1] — lower, 0.292
- GUAUGAGUGUAUUGGUCUUCAUAA [hsa-mir-9-2] — lower, 0.0907
- GUCACAAAUUCAAAUAAAGUGAG [hsa-mir-4693] — lower, 1.03
- GUCACCAGCCCUCAUGUACUUGUGAC [hsa-mir-6820] — lower, 0.222
- GUCACUGUCUCAAAUCAGUGAC [hsa-mir-549a] — lower, -0.129
- GUCAGGAGUGGCUUUCCUGAC [hsa-mir-4462] — lower, 0.279
- GUCAGGUGAUGGUGAUAAGGUCAAGGCCUG [hsa-mir-6853] — lower, 0.388
- GUCAGUCCCAAUCUGAAUCCCACCAAAAUAGGUGGUAGAGGGUUGC [hsa-mir-4290] — lower, 0.0867
- GUCAUUACUUUCAAUAGC [hsa-mir-548p] — lower, -0.684
- GUCAUUUCCCAUCACUAAUGGC [hsa-mir-6815] — lower, -0.873
- GUCAUUUUUCUGUGACUGCACAUGGC [hsa-mir-3136] — lower, -0.215
- GUCCAUUAGGCUUUGUUAUGGAAACUUCUCCUGAUC [hsa-mir-635] — lower, 0.6
- GUCCCAAUACAUGUGGGCC [hsa-mir-586] — lower, -0.22
- GUCCGGGUGGGUUCCGGCA [hsa-mir-657] — lower, 1.33

Tested on: TO-3-N3-2 (biotin conjugate)
Experiment: as above
Details: RNA library: Library-2
Summary of the method: as §1

Point of comparison: GGUUUUGCCAUCAUGCCAAAAGCU [hsa-mir-548v], “pull-down binding Z-score” value -0.0997. Against it:
- GGGGCCCUACUUUAAGGGCCCU [hsa-mir-8087] — higher, 0.194
- GGGGCCUGUGGUCCC [hsa-mir-1268a] — lower, -0.144
- GGGGCUCUU [hsa-mir-4634] — higher, 0.0655
- GGGGCUGAGGCUGAGUCUUCCUCCC [hsa-mir-6756] — higher, 0.101
- GGGGCUGGCUGGGUCUGGUAGUGGGCAUCAGCUGGCCCU [hsa-mir-1207] — higher, 1.51
- GGGGCUGGUUGUCUA [hsa-mir-6080] — lower, -0.165
- GGGGGCAGGCAGGGGAUUGGCUAAGAACCUGACUCUUGC [hsa-mir-7703] — higher, 1.44
- GGGGGCAGGCUGCCACCUCCUG [hsa-mir-8089] — higher, 0.599
- GGGGGUGGCCGGGGCUGACCCU [hsa-mir-939] — higher, 1.8
- GGGGUAGAAGCCACCCG [hsa-mir-4466] — higher, 0.0166
- GGGGUCUUGCUCUAUU [hsa-mir-6088] — higher, 0.136
- GGGGUGGCUGCGGGCCUUCUGAAGGUCUCCC [hsa-mir-662] — higher, 0.448
- GGGGUUUUUGCCUCCAACUGACUCC [hsa-mir-155] — lower, -0.283
- GGGUCAGGUCUGCAGCCUUGUAUCUGCUGAUCC [hsa-mir-6881] — lower, -0.227
- GGGUCAGUGGCAGAGCCAGGCAGAUGCUGACCC [hsa-mir-6832] — higher, 0.267
- GGGUCCUAAGGUGUGUCCUC [hsa-mir-1976] — higher, -0.0978
- GGGUCGUGGGAAAGUGUUGACCC [hsa-mir-4655] — higher, 0.276
- GGGUGAGAGUGCUUUCUGAAUGCAGUGCACCC [hsa-mir-500b] — higher, 0.131
- GGGUGAUACACAAGCCUGACCCUCCC [hsa-mir-6793] — higher, 0.55
- GGGUGGGCGGGGGCGGCCGGUGGGAACCCCGCCCCGCCCCGCGCCCGCACUCACCC [hsa-mir-7108] — higher, 6.86
- GGGUGUAUGGUAUAGGGGUAGCCU [hsa-mir-3137] — higher, 1.54
- GGGUUCAAUAGAUUGCUUUAGCUGAAGCAAGCCU [hsa-mir-8054] — higher, 0.131
- GGGUUGCAUCCUAAGCUGUGCUGGAGCUUCCC [hsa-mir-623] — higher, 0.384
- GGUAAGGUCUUUCAGCC [hsa-mir-7150] — higher, 0.105
- GGUACUUUAUAAUUUCAAAAAGUCCC [hsa-mir-361] — lower, -0.356
- GGUAGAGAUGAUUUUUCCUACU [hsa-mir-5003] — higher, 0.65
- GGUAGGUUACGUCAUGCUGUUCUACC [hsa-mir-140] — lower, -0.139
- GGUAUGGAUUCUGUUGUUUUGGCAACAUUCU [hsa-mir-8088] — higher, 0.124
- GGUCAGGUGGUGCCCUCCUUCCAUGGGUAGAGCCAGAGAUGGUGGGUUCUGGCU [hsa-mir-6131] — higher, 0.142
- GGUCUGAGCCCAUGUGUGGACCUAGGUCUGCUGUUAAACUGACU [hsa-mir-6831] — higher, 0.106
- GGUGCAAAGCCUGCCCGCCCC [hsa-mir-5090] — lower, -0.136
- GGUGCAGUCAGUCCUAGCUC [hsa-mir-3135b] — higher, 0.0356
- GGUGGCAAUCAAGGUCUAGCCACC [hsa-mir-4733] — higher, 0.265
- GGUGGGCCUCUGCUCUGGCCCCUCC [hsa-mir-1343] — lower, -0.315
- GGUGGGGGCUCUGAGUGGGGAAAGUGGGGGCCUAGGGGAGGUCACAGU [hsa-mir-4259] — higher, 3.57
- GGUGGGUGCC [hsa-mir-1268b] — lower, -0.32
- GGUGGGUGGGAAGUAAGAUCUGACCUGGACUCCAUCCCACCCACC [hsa-mir-4640] — higher, 4.64
- GGUGGUUGUGGGAGUCACU [hsa-mir-4418] — higher, 1.89
- GGUGUCAUGCCCCAAGAUAACC [hsa-mir-634] — lower, -0.28
- GGUGUCGAACUCAUGGCUGCCACC [hsa-mir-6782] — lower, -0.167
- GGUUCAAGUUUGGCUCCAUCUUUAUGAAA [hsa-mir-4506] — higher, 0.109
- GGUUCCCACGCCGCGGCAACC [hsa-mir-6776] — lower, -0.135
- GGUUCUCAGUCAGAACC [hsa-mir-6813] — lower, -0.346
- GGUUCUGGGGUGUAGACGCUGCUGGCCAGCC [hsa-mir-4707] — higher, 0.282
- GGUUCUUCCCGAAGC [hsa-mir-4710] — lower, -0.22
- GGUUGCUGGAGGUCAGC [hsa-mir-6871] — higher, 0.233
- GGUUGGCCGCUGACCCCCGCGGGGCCCCCGGCGGCC [hsa-mir-3195] — lower, -0.293
- GGUUGGGGUGGGCUGCCUGUGGACCAAUC [hsa-mir-4525] — higher, 1.06
- GGUUGUUAGAUAGACAACU [hsa-mir-4510] — higher, 0.19
- GGUUGUUUAAUUAGGAACCAACU [hsa-mir-190b] — higher, 0.0266
- GGUUUCCUUCGGGGCAGGUGGGGACUGCUCCUUUGGGAGGAAGGAGGAGGCC [hsa-mir-4453] — higher, 1.96
- GGUUUCGGGCUGCC [hsa-mir-661] — higher, 0.067
- GGUUUCUUAAAAUGGAAUCU [hsa-mir-1255b-1] — higher, 0.0245
- GGUUUGCGCCUCAAGAAACC [hsa-mir-1255b-2] — lower, -0.306
- GGUUUUUACCAUUAAAACC [hsa-mir-548aw] — lower, -0.448
